Measured values: patent US20150344570A1 (published 2015)

T1: FcγRIIb extracellular domain with C-terminal His tag (human, UniProt P31994 43-217)
T1 construct: extracellular domain; soluble analyte in Biacore; also called FcgRIIb; not shown: His tag at the C terminus
T1 sequence (looked up): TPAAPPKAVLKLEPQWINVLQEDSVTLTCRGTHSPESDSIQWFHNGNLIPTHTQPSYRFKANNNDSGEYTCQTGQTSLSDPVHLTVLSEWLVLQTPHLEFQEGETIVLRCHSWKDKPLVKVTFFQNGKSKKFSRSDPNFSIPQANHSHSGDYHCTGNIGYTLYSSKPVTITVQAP

B1: GpH7-A5/GpH7-B3 variant A330_06M/GpL16-k0 (antibody, human IgG1, kappa)
heavy 1: not shown
heavy 2: not shown
light: DIVMTQSPLSLPVTPGEPASISCQASESLVHSNRNTYLHWYLQKPGQSPQLLIYKVSNRFSGVPDRFSGSGSGTDFTLKISRVEAEDVGVYYCSQNTHVPPTFGQGTKVEIERTVAAPSVFIFPPSDEQLKSGTASVVCLLNNFYPREAKVQWKVDNALQSGNSQESVTEQDSKDSTYSLSSTLTLSKADYEKHKVYACEVTHQGLSSPVTKSFNRGEC
notes: change in the GpH7-B3 H chain only; also called He Ab
B2: GpH7-A5/GpH7-B3 variant E333_13S/GpL16-k0 (antibody, human IgG1, kappa)
heavy 1: not shown
heavy 2: not shown
light: B1 light
notes: as for B1
B3: GpH7-A5/GpH7-B3 variant E333_09D/GpL16-k0 (antibody, human IgG1, kappa)
heavy 1: not shown
heavy 2: not shown
light: B1 light
notes: as for B1
B4: GpH7-A5/GpH7-B3 variant I336_01G/GpL16-k0 (antibody, human IgG1, kappa)
heavy 1: not shown
heavy 2: not shown
light: B1 light
notes: as for B1
B5: GpH7-A5/GpH7-B3 variant A330_09D/GpL16-k0 (antibody, human IgG1, kappa)
heavy 1: not shown
heavy 2: not shown
light: B1 light
notes: as for B1
B6: GpH7-A5/GpH7-B3 variant E333_16H/GpL16-k0 (antibody, human IgG1, kappa)
heavy 1: not shown
heavy 2: not shown
light: B1 light
notes: as for B1
B7: GpH7-A5/GpH7-B3 variant P329_01G/GpL16-k0 (antibody, human IgG1, kappa)
heavy 1: not shown
heavy 2: not shown
light: B1 light
notes: as for B1
B8: GpH7-A5/GpH7-B3 variant S324_08L/GpL16-k0 (antibody, human IgG1, kappa)
heavy 1: not shown
heavy 2: not shown
light: B1 light
notes: as for B1
B9: GpH7-A5/GpH7-B3 variant S324_11K/GpL16-k0 (antibody, human IgG1, kappa)
heavy 1: not shown
heavy 2: not shown
light: B1 light
notes: as for B1
B10: GpH7-A5/GpH7-B3 variant E333_04F/GpL16-k0 (antibody, human IgG1, kappa)
heavy 1: not shown
heavy 2: not shown
light: B1 light
notes: as for B1
B11: GpH7-A5/GpH7-B3 variant A330_19Q/GpL16-k0 (antibody, human IgG1, kappa)
heavy 1: not shown
heavy 2: not shown
light: B1 light
notes: as for B1
B12: GpH7-A5/GpH7-B3 variant E333_02A/GpL16-k0 (antibody, human IgG1, kappa)
heavy 1: not shown
heavy 2: not shown
light: B1 light
notes: as for B1
B13: GpH7-A5/GpH7-B3 variant S324_09D/GpL16-k0 (antibody, human IgG1, kappa)
heavy 1: not shown
heavy 2: not shown
light: B1 light
notes: as for B1
B14: GpH7-A5/GpH7-B3 variant E333_03V/GpL16-k0 (antibody, human IgG1, kappa)
heavy 1: not shown
heavy 2: not shown
light: B1 light
notes: as for B1
B15: GpH7-A5/GpH7-B3 variant E333_06M/GpL16-k0 (antibody, human IgG1, kappa)
heavy 1: not shown
heavy 2: not shown
light: B1 light
notes: as for B1
B16: GpH7-A5/GpH7-B3 variant E333_11K/GpL16-k0 (antibody, human IgG1, kappa)
heavy 1: not shown
heavy 2: not shown
light: B1 light
notes: as for B1
B17: GpH7-A5/GpH7-B3 variant A330_14T/GpL16-k0 (antibody, human IgG1, kappa)
heavy 1: not shown
heavy 2: not shown
light: B1 light
notes: as for B1
B18: GpH7-A5/GpH7-B3 variant A330_03V/GpL16-k0 (antibody, human IgG1, kappa)
heavy 1: not shown
heavy 2: not shown
light: B1 light
notes: as for B1
B19: GpH7-A5/GpH7-B3 variant I332_12R/GpL16-k0 (antibody, human IgG1, kappa)
heavy 1: not shown
heavy 2: not shown
light: B1 light
notes: as for B1
B20: GpH7-A5/GpH7-B3 variant A330_15Y/GpL16-k0 (antibody, human IgG1, kappa)
heavy 1: not shown
heavy 2: not shown
light: B1 light
notes: as for B1
B21: GpH7-A5/GpH7-B3 variant A330_18N/GpL16-k0 (antibody, human IgG1, kappa)
heavy 1: not shown
heavy 2: not shown
light: B1 light
notes: as for B1
B22: GpH7-A5/GpH7-B3 variant E333_08L/GpL16-k0 (antibody, human IgG1, kappa)
heavy 1: not shown
heavy 2: not shown
light: B1 light
notes: as for B1
B23: GpH7-A5/GpH7-B3 variant A327_03V/GpL16-k0 (antibody, human IgG1, kappa)
heavy 1: not shown
heavy 2: not shown
light: B1 light
notes: as for B1
B24: GpH7-A5/GpH7-B3 variant S324_12R/GpL16-k0 (antibody, human IgG1, kappa)
heavy 1: not shown
heavy 2: not shown
light: B1 light
notes: as for B1

Key:
[1] = target: T2, FcγRIa extracellular domain with C-terminal His tag (human, UniProt P12314 16-292); test: SPR, binding relative to GpH7-A5/GpH7-B3/GpL16-k0 = 100
T2 construct: extracellular domain; soluble analyte in Biacore; also called FcgRI; not shown: His tag at the C terminus

[2] = target: T1, FcγRIIb extracellular domain with …; test: as above

T2 sequence (P12314 16-292): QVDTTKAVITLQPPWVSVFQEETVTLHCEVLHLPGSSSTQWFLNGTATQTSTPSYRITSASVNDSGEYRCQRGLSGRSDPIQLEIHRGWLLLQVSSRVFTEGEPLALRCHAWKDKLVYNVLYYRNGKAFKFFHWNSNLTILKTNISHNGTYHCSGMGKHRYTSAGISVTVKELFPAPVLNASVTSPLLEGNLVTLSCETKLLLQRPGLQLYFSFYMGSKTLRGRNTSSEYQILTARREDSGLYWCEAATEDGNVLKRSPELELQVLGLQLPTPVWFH

He/Con_1a [1]	He/Con_2b [2]	Binder
105 % of control	80.5 % of control	B1
103 % of control	81.8 % of control	B2
104 % of control	94.3 % of control	B3
109 % of control	90.1 % of control	B4
109 % of control	55.6 % of control	B5
101 % of control	83.3 % of control	B6
101 % of control	41.7 % of control	B7
103 % of control	89.6 % of control	B8
102 % of control	68.6 % of control	B9
102 % of control	94.6 % of control	B10
105 % of control	90.8 % of control	B11
103 % of control	83.8 % of control	B12
104 % of control	85.8 % of control	B13
105 % of control	93.2 % of control	B14
102 % of control	85.4 % of control	B15
102 % of control	80.6 % of control	B16
105 % of control	77.9 % of control	B17
106 % of control	52.4 % of control	B18
100 % of control	48.9 % of control	B19
105 % of control	95 % of control	B20
106 % of control	63.7 % of control	B21
102 % of control	95 % of control	B22
103 % of control	94.7 % of control	B23
102 % of control	63.1 % of control	B24
